Reference: PMC11139864

Legend:
[1] = target: Thogoto virus (THOV) polymerase, full-length heterotrimer of PB2, PB1 and PA (Thogoto virus (isolate SiAr 126)) (UniProt Q9YNA4)
[2] = target: Thogoto virus (THOV) polymerase, full-length heterotrimer of PB2, PB1 and PA (Thogoto virus (isolate SiAr 126)) (UniProt Q9YNA4); test: cryo-EM structure; replicative elongation sample: 3.2 uM THOVPol, 30 °C for 6 h with 1.6 uM 3' vRNA, 1.6 uM 5' vRNA, 160 uM primer pppApG, 1.6 mM each ATP and CTP; 25 mM Tris-HCl pH 7.5, 300 mM NaCl, 2 mM MnCl2, 8 mM TCEP, 1% glycerol; asymmetric dimer of two heterotrimers (THOVPol-ELR with THOVPol-RER) beside a monomeric form
[3] = target: Thogoto virus (THOV) polymerase, full-length heterotrimer of PB2, PB1 and PA (Thogoto virus (isolate SiAr 126)) (UniProt Q9YNA4); test: cryo-EM structure; transcriptional elongation sample: 3.2 uM THOVPol, 30 °C for 6 h with 2.5 uM 3' vRNA, 2.5 uM 5' vRNA, 160 uM capped primer m7GpppAmG, 1.6 mM each ATP and CTP; 25 mM Tris-HCl pH 7.5, 300 mM NaCl, 2 mM MnCl2, 8 mM TCEP, 1% glycerol; asymmetric dimer of two heterotrimers (THOVPol-EL with THOVPol-RE) beside monomeric forms

Question: “Thogoto virus (THOV) polymerase, full-length heterotrimer of PB2, PB1 and PA (from UniProt Q9YNA4 1-769; Q9YNA4 1-769; Q9YNA4 1-769) (complex)” was tested. Which reduction of mRNA and cRNA levels in the mini-replicon assay (RT-qPCR) with PB2-HA D547A/F549A (dimer interface 1) [1] did it give?
Answer: The reduction of mRNA and cRNA levels in the mini-replicon assay (RT-qPCR) with PB2-HA D547A/F549A (dimer interface 1) was over 100 fold.

Question: And the reduction of mRNA and cRNA levels in the mini-replicon assay (RT-qPCR) with PB2-HA F134A/W138A (dimer interface 2) [1]?
Answer: Its reduction of mRNA and cRNA levels in the mini-replicon assay (RT-qPCR) with PB2-HA F134A/W138A (dimer interface 2) is over 100 fold.

Question: And the reduction of mRNA and cRNA levels in the mini-replicon assay (RT-qPCR) with PB2-HA Q295A/D547A/I653A (dimer interfaces 1 and 3) [1]?
Answer: Its reduction of mRNA and cRNA levels in the mini-replicon assay (RT-qPCR) with PB2-HA Q295A/D547A/I653A (dimer interfaces 1 and 3) is over 100 fold.

Question: And the stoichiometry N [2]?
Answer: The stoichiometry N was 2.

Question: What about the stoichiometry N [3] of the same substance?
Answer: The stoichiometry N was 2.
